Molecular target: HLA-DRα (human)
Conditions: scale: % of surface expression with wild type Ii

Ii M91G mutant (natural protein)
cell surface expression of DRA.DPB1*0401 co-expressed with Ii M91G (flow cytometry, mAb 2.06): 60

Reference: paper PMC3887193
